Assay results from the NTF2 design screens of Basanta et al. (2020).

experiment: protease stability score; higher = more stable; yeast display proteolysis, trypsin and chymotrypsin;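 further: relative to predicted unfolded state with 0 unfolded-like and 1 meaning tenfold more protease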

| Sequence | protease stability score |
| --- | --- |
| EDEERETEEAIRLFIKNEITGDWKRLLHYLDPNVRVRIGDKEIHGMERWKDEFKQEIDRVKGLRYELDDERRHLVDGKIEIILDFTIHVGEKRHRFQLVLILVKVNGRWIMHSIHVNYL | 1.54 |
| SEDRKLAEILVKITMDILHTGDEEEWLKLLDPHTRIDFDGRDMHGREFFMKVFRDWGIDNIEVHLHDVKVQGDFLDINVSVHINGRKIDHRLIVEKIDGRWIIREFEVR | 1.58 |
| DEIHEKVQLAAEIFEEIVRTGDEELFMRYMDPHVRLIDENEIYHGMDIWHKWLHERHEKLGAKHEEVKTRSLDLQGEKLRVEGDFVVNVNGRTFHHRLHLIYRKIDGQWRYEQISLE | 0.853 |
| SEEHKLLRETLEILWDTIETGDEHKLSNLLDPRARLRVGDKEYHGREEVMRIMTEIRVDRFRLHSITLVDGRAIIHTEIDVRVNGQRFRTSVTIFLIKVDGRWFVESLQID | 2.4 |
| DEDTEDLKRLIKLFVDLIRTGDWEELEKLLDPNVRLHFNGRDYHGRELALELMKVFGVDHIQLREVRVVNGKAENRTELIVNGREHEEHVIMEKIDGRWRIRSFEFR | 1.3 |
| HEDNDIMEKAMEDILEKIVTGDEDFLREQMDPHVRSVDIINGRRIERHGREDILELLRRLGFDHVRLERYDIQGDKLIVHSKFTYGDKETELRIIIWKVNGRWVFHSVEVIIL | 1.87 |
| TEDQEEAKRLLHHLAHNWFTGNEHILTRLADPNTRMNVNGRDYHGREIMHETVREILERLGIDHFEIKDMRFIVQGEKIHIHIHIRSTVNGQEEDFRLSISVHKIDGRWVIKEINLHFI | 0.511 |
| SEDQHELTTLLEHLLRIHRTGDFHTLERLMDPNTWTLVDGVWFVGREAVEYSNKLIKFTKRIEIDHFEIQGEKATIHGTYHSHYNGREFHIHVTTYYQKINGRWVLHSIEFR | 1.38 |
| SEEEEIARRFISVWLHAFHTGDEKRLEEMIDPHVRVDYNGVEIIGRENWIEFMLTIMRNLGFNHIRVELDHLDFQGDKMRLETTLKRKVNGREERIDTRIHVKKIDGQWIFTHELYK | 0.795 |
| DEEKHEALRLTREFLKLFFTGDWEKLVRLIDPDAKVEIGNFESVGRENIAHLLHLLNEEWRINDMRIHSFTVVNGQVRMDTEINGIYGDKNYETRTEIESVVIDGRLKHFSIRER | 1.24 |
| SESEEFAREFLEHMEKFLRTGNWEEMKRNADPNVLLRIGDKHLHGREEYEEWLRKFLEHMRIREVEVKDLKIVGDKIFLIIRIRIHFDGREDQLDTILVMQKVDGRWIVTEIRVR | 1.21 |
| DEEHNHFERLTRWFEHVWRTGNEEFFRELADPNARMRINGQEYVGREELVRTLHEWLKILGAKHHRKKDEEIQGEKVILIGEVDIDGRTLRHHVHFRIINGRLHSLEVEVK | 1.3 |
| NEDEEIVRERFEEFLDMMFTGDWTSLEKLLDPHYRLDIGDKHHHGREEFIEFVRKIKNLRIDIKRVSVIVIDGRAINHVDGVLHFNGKTEKVHIIVVAKKIDGRWIVERVTIETH | 2.08 |
| GENEQLIEEAVKMFMDIHHTGDWRDVHHLLDPHMRLDVNGVDYHGRDLWVRIAKEISEHARTEVRIRHLEIQGDKVIVHGQIILRIGDKTHVIDTRHIIIKINGRWKLHSVDIH | 1.32 |
| SDWDKITKEMAELILTAEETGDFKTLWRLMDPNVKLNIGDKTHHGREEYLKWMHEHLKKVPNLTLKLRDVHVQGDKVHLRVEVEIGDKTIDSEIHLEIINGRIEHLRIIDL | 0.957 |
| HEQDEAWDVINRDLAQSIETGDEHTERELLDPNVRIDFDGVKLHGRDEWHDFVRKELEHLGVDRIDIRIEIHNSKYQGEKVDSDTELKIRYGDKHVRIKTRLILHKIDGRWLVKSIQIN | 1.1 |
| DEDEESLRRMTTLLLYLWLTGDFEEMQKLADPRVKLDAENRNVHGREEWYEFMKRLGVKHSEVHHLRVINGRIDVETRVDVDGQEVRIRFIIDKVDGRWFLRRVYVH | 1.85 |
| DTEEEILKQYLELLRRQHATGDEDSIKHLVDPNVRNDVNGVDIHGRDRMREWIERHRHNLGIDHIEIRITDLHIIDGRIHLDVRVFYRVDGRTIHMEIYVVLVKVDGRWSVKSRHLH | 0.911 |
| DHLEEDSERAKELFIKVFKTGDEHIIKEMIDPHARLDWNGQEFHGREEVTRVMHELLEEYGIKHLHVRRFKVVNGRVEIDTELRQGDYRDESIIIILKVNGKWLIHSIEFK | 2.12 |
| SEEEEKAVKVTEEILHNLLTGDWERLAEMLDPDTWLHQGDKHRHGREQVLKHFSDFYNEIRIEDFKIHDITVQGEKAISHGHVKMRYGDKVRETSVRFVLIVIDGRIDQIEVHVH | 1.8 |
